According to the supplement of paper PMC10567573:

B1: ANKRD17 (parent)
chain: EMVRFLLEAGADQEHKTDEMHTAL

Variants of: B1
Assay: protein stability index of a GFP-peptide fusion (GPS, HEK-293T) (PSI 1-6); higher = more stable
Conditions: c terminus: a fixed tail appended
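Note: lentivirally expressed fusions sorted by FACS into six bins by GFP to DsRed ratio, PSI derived from sequencing read proportions per bin multiplied by bin number.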

| Variant | protein stability index |
| --- | --- |
| EMVRFLLEAGADQEHKTDEMETAL [H21E] | 2.89 |
| EMVRFLLEAGADQEHKTDEMWTAL [H21W] | 1.92 |
| EMVRFLLEAGADQEHKTDEMVTAL [H21V] | 2.34 |
| EMVRFLLEAGADQEHKTDEMSTAL [H21S] | 3.4 |
| HMVRFLLEAGADQEHKTDEMHTAL [E1H] | 2.75 |
| FMVRFLLEAGADQEHKTDEMHTAL [E1F] | 2.56 |
| LMVRFLLEAGADQEHKTDEMHTAL [E1L] | 2.16 |
| TMVRFLLEAGADQEHKTDEMHTAL [E1T] | 2.73 |
| QMVRFLLEAGADQEHKTDEMHTAL [E1Q] | 2.9 |
| SMVRFLLEAGADQEHKTDEMHTAL [E1S] | 3.41 |
| EMVRFLLEAGADQEHKTDEMHTAR [L24R] | 2.72 |
| EMVRFLLEAGADQEHKTDEMHTAK [L24K] | 3.3 |
| EMVRFLLEAGADQEHKTDEMHTAI [L24I] | 2.31 |
| EMVRFLLEAGADQEHKTDEMHTAF [L24F] | 2.34 |
| EMVRFLLEAGADQEHKTDEMHTAS [L24S] | 2.99 |
| EMVRFLLEAGADQEHKTDEMHTAV [L24V] | 2.62 |
| EMVRFLLEAGADQEHKTDEMHTAA [L24A] | 2.75 |
| EMVRFLLEAGADQEHKTDEMHFAL [T22F] | 1.97 |
| EMVRFLLEAGADQEHKTDEMHGAL [T22G] | 3.23 |
| EMVRFLLEAGADQEHKTDEMHWAL [T22W] | 1.91 |
| EMVRFLLEAGADQEHKTDEMHQAL [T22Q] | 2.78 |
| EMVRFLLEAGADQEHKTDEMHEAL [T22E] | 3.42 |
| EMVRFLLEAGADQEHKTDEMHLAL [T22L] | 3.45 |
| EMVRFLLEAGADQEHKTDEMHTYL [A23Y] | 3.03 |

| Variant | protein stability index |
| --- | --- |
| EMVRFLLEAGADQEHKTDEMHTHL [A23H] | 2.69 |
| EMVRFLLEAGADQEHKTDEMHTFL [A23F] | 2.18 |
| EMVRFLLEAGADQEHKTDEMHTDL [A23D] | 3.06 |
| EMVRFLLEAGADQEHKTDEMHTVL [A23V] | 2.6 |
| EMLRFLLEAGADQEHKTDEMHTAL [V3L] | 2.62 |
| EMVRFLLDAGADQEHKTDEMHTAL [E8D] | 2.72 |
| EMVRFLLEAGADQEHTTDEMHTAL [K16T] | 3.44 |
| EMVRFLLEAGADQEHITDEMHTAL [K16I] | 2.72 |
| EMVRFLLEAGADQEHATDEMHTAL [K16A] | 3.16 |
| EMVRFLLEAGADQEHQTDEMHTAL [K16Q] | 2.53 |
| EMVRFLLEAGADQEHGTDEMHTAL [K16G] | 2.56 |
| EEVRFLLEAGADQEHKTDEMHTAL [M2E] | 4.73 |
| ERVRFLLEAGADQEHKTDEMHTAL [M2R] | 4.21 |
| EMVRFLLEAGADQEHKTDERHTAL [M20R] | 3.5 |
| EMVRFLLEAGADQEHKTDEAHTAL [M20A] | 3.04 |
| EMVRFLLEAGADQEHKTDEYHTAL [M20Y] | 2.45 |
| EMVRFLLEAAADQEHKTDEMHTAL [G10A] | 2.76 |
| EMVRFLLEATADQEHKTDEMHTAL [G10T] | 2.27 |
| EMVRFGLEAGADQEHKTDEMHTAL [L6G] | 4.95 |
| EMVRFDLEAGADQEHKTDEMHTAL [L6D] | 5.47 |
| EMVRFVLEAGADQEHKTDEMHTAL [L6V] | 3.51 |
| EMVRFWLEAGADQEHKTDEMHTAL [L6W] | 3.25 |
| EMVRFHLEAGADQEHKTDEMHTAL [L6H] | 4.42 |
| EMVRFPLEAGADQEHKTDEMHTAL [L6P] | 5.04 |

| Variant | protein stability index |
| --- | --- |
| EMVRSLLEAGADQEHKTDEMHTAL [F5S] | 4.56 |
| EMVRFLLEAGADQEHKTCEMHTAL [D18C] | 2.01 |
| EMVRFLLEAGADQEHKTPEMHTAL [D18P] | 2.35 |
| EMVRFLLEAGADQEHKTKEMHTAL [D18K] | 2.47 |
| EMVRFLLEAGADQEHKTFEMHTAL [D18F] | 1.34 |
| EMVRFLLEAGADQEHKTNEMHTAL [D18N] | 2.51 |
| EMVRFLLEAGADQEHKTMEMHTAL [D18M] | 2.1 |
| EMVRFLLEAGADMEHKTDEMHTAL [Q13M] | 2.25 |
| EMVRFLLEAGADIEHKTDEMHTAL [Q13I] | 2.36 |
| EMVRFLLEAGADGEHKTDEMHTAL [Q13G] | 2.78 |
| EMVRFLLEAGADEEHKTDEMHTAL [Q13E] | 2.79 |
| EMVRFLLEMGADQEHKTDEMHTAL [A9M] | 2.22 |
| EMVRFLLERGADQEHKTDEMHTAL [A9R] | 2.03 |
| EMVRFLLESGADQEHKTDEMHTAL [A9S] | 2.96 |
| EMVRFLLEAGADQEHKLDEMHTAL [T17L] | 2.22 |
| EMVRFLLEAGADQEHKFDEMHTAL [T17F] | 2.15 |
| EMVRFLNEAGADQEHKTDEMHTAL [L7N] | 3.72 |
| EMVRFLDEAGADQEHKTDEMHTAL [L7D] | 5.07 |
| EMVRFLHEAGADQEHKTDEMHTAL [L7H] | 4.27 |
| EMVRFLPEAGADQEHKTDEMHTAL [L7P] | 4.99 |
| EMVDFLLEAGADQEHKTDEMHTAL [R4D] | 4.17 |
| EMVMFLLEAGADQEHKTDEMHTAL [R4M] | 2.46 |
| EMVCFLLEAGADQEHKTDEMHTAL [R4C] | 3.14 |
| EMVNFLLEAGADQEHKTDEMHTAL [R4N] | 3.22 |

| Variant | protein stability index |
| --- | --- |
| EMVRFLLEAGACQEHKTDEMHTAL [D12C] | 1.44 |
| EMVRFLLEAGAKQEHKTDEMHTAL [D12K] | 2.69 |
| EMVRFLLEAGAMQEHKTDEMHTAL [D12M] | 2.07 |
| EMVRFLLEAGAEQEHKTDEMHTAL [D12E] | 2.76 |
| EMVRFLLEAGAGQEHKTDEMHTAL [D12G] | 1.96 |
| EMVRFLLEAGADQEHKTDRMHTAL [E19R] | 2.7 |
| EMVRFLLEAGADQEHKTDMMHTAL [E19M] | 2.01 |
| EMVRFLLEAGADQEHKTDKMHTAL [E19K] | 1.91 |
| EMVRFLLEAGADQEHKTDFMHTAL [E19F] | 1.97 |
| EMVRFLLEAGADQEHKTDTMHTAL [E19T] | 2.53 |
| EMVRFLLEAGADQEHKTDPMHTAL [E19P] | 1.87 |
| EMVRFLLEAGADQEHKTDSMHTAL [E19S] | 2.16 |
| EMVRFLLEAGADQGHKTDEMHTAL [E14G] | 2.63 |
| EMVRFLLEAGADQTHKTDEMHTAL [E14T] | 2.04 |
| EMVRFLLEAGADQNHKTDEMHTAL [E14N] | 1.95 |
| EMVRFLLEAGADQMHKTDEMHTAL [E14M] | 2.72 |
| EMVRFLLEAGSDQEHKTDEMHTAL [A11S] | 3.1 |
| EMVRFLLEAGYDQEHKTDEMHTAL [A11Y] | 2.01 |
| EMVRFLLEAGRDQEHKTDEMHTAL [A11R] | 3.02 |
| EMVRFLLEAGWDQEHKTDEMHTAL [A11W] | 2.22 |
| EMVRFLLEAGADQEVKTDEMHTAL [H15V] | 2.69 |
| EMVRFLLEAGADQEDKTDEMHTAL [H15D] | 3.33 |
